# Reference: patent publication US20250215073A1 (TOKUSHIMA UNIVERSITY, published 2025)
# T1: FLT4-Fc (fusion product of the extracellular region of the human FLT4 protein and mouse antibody Fc) (human; mouse, UniProt P35916 25-775)
# T1 construct: extracellular domain; Negative control antigen in the EIA
# T1 sequence (looked up): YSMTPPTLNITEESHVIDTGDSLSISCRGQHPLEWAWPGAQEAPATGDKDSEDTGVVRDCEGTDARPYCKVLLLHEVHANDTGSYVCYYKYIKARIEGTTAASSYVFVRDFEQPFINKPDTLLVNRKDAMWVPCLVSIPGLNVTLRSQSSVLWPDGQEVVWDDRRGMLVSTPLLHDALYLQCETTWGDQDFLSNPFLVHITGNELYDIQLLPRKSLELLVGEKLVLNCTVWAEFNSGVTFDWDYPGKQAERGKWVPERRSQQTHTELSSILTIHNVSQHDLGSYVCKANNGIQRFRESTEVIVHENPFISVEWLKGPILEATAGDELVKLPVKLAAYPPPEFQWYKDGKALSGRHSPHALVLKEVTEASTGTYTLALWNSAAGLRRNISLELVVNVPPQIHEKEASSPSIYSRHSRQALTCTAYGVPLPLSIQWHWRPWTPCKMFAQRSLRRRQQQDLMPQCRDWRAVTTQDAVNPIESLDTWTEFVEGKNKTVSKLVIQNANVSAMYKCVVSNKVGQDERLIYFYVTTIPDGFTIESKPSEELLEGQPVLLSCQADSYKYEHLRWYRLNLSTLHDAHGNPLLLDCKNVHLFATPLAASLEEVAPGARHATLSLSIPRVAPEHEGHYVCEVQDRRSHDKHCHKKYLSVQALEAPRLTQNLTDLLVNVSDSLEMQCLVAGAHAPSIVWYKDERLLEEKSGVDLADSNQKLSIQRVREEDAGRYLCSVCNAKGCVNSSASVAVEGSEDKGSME
# B1: IR700-labeled mouse anti-c-KIT (12A8) antibody (whole IgG) (antibody, V domains shown)
# VH: EVQLQQSGPELVKTGTSVKISCKASGYSFSNYYMHWVKQSHGKSLEWIGYISCFNGATTYNQKFRGKATFTVDTSSSTTYMQFNSLTSEDSAVYFCARRTAGAMDYWGQGTSVTVSS
# VL: EVVVTQTPLSLPVSFGDQVSISCRSSQSLANSYGNTYLSWYLHKPGQSPQLLIYGISNRFSGVPDRFSGSGSGTEFTLEISTIKPEDLGMYYCLQGTHQPYTFGGGTKLEIKR
# modifications: IR700 (IRDye700DX) conjugated, residues not stated
# notes: Mouse IgG1 12A8 conjugated with IRDye700DX; also called IR700-12A8 (whole IgG); IR700-12A8 Whole IgG
# B2: IR700-labeled humanized anti-c-KIT (12A8) IgG1 antibody (antibody, V domains shown)
# VH: QVQLVQSGAEVKKPGASVKVSCKASGYSFSNYYMHWVRQAPGQRLEWMGYISCFNGATTYNQKFRGRVTITRDTSASTAYMELSSLRSEDTAVYYCARRTAGAMDYWGQGTLVTVSS
# VL: DIVMTQTPLSLSVTPGQPASISCRSSQSLANSYGNTYLSWYLQKPGQSPQLLIYGISNRFSGVPDRFSGSGSGTDFTLKISRVEAEDVGVYYCLQGTHQPYTFGGGTKVEIKR
# modifications: IR700 (IRDye700DX) conjugated, residues not stated
# notes: The antibody was purified on protein A before labeling; also called Humanized Whole IgG
# B3: humanized anti-c-KIT (12A8) IgG1 antibody (antibody, V domains shown)
# VH: B2 VH
# VL: B2 VL
# notes: Human IgG1 / kappa, tested in the EIA as CHO-K1 culture supernatant; also called humanized c-KIT (12A8) IgG1; humanized anti-c-KIT (12A8) antibody (whole IgG)
# B4: humanized anti-c-KIT (12A8) Fab antibody (Fab, V domains shown)
# VH: B2 VH
# VL: B2 VL
# notes: Recombinant Fab, tested in the EIA as CHO-K1 culture supernatant; also called Fab fragment of the humanized anti-c-KIT (12A8) antibody
# B5: IR700-labeled humanized anti-c-KIT (12A8) Fab antibody (Fab, V domains shown)
# VH: B2 VH
# VL: B2 VL
# modifications: IR700 (IRDye700DX) conjugated, residues not stated
# notes: The Fab was purified on Kan Cap G before labeling; also called Humanized Fab
# Assays:
# human c-KIT = molecular target: T2, human c-KIT (human, UniProt P10721 26-976); assay: flow cytometry on fixed GIST-T1 cells, 10 µg antibody
# T2 construct: whole, on cells; Endogenous c-KIT of the GIST cell line GIST-T1 and the small cell lung cancer line SY; also called c-KIT on GIST-T1 cells; c-KIT on SCLC cell line SY
# T2 sequence (P10721 26-976): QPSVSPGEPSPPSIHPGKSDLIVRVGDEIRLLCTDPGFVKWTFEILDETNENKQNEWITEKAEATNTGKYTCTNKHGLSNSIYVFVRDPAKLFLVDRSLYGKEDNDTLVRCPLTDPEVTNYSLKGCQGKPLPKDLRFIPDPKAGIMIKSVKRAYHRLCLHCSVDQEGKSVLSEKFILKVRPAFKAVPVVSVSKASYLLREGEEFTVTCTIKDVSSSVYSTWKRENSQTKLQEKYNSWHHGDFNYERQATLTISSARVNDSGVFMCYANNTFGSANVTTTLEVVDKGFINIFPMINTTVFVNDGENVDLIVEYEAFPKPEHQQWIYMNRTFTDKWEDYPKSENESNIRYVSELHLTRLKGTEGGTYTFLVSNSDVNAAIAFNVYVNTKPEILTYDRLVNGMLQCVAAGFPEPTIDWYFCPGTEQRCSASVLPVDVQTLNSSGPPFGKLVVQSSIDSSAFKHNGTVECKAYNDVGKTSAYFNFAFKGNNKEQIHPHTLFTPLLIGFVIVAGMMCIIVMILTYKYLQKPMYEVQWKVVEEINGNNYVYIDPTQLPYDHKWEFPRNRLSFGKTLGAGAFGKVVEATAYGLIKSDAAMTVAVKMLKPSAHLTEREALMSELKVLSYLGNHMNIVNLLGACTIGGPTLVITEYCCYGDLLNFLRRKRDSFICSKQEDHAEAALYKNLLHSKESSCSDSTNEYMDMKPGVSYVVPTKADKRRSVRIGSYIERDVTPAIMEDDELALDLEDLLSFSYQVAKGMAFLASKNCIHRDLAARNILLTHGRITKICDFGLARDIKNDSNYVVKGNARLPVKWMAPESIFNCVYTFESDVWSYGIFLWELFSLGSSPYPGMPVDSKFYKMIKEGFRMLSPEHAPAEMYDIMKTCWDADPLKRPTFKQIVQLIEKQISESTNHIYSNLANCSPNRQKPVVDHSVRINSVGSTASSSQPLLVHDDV
# Experimental: GIST-T1 cells were collected with trypsin (on ice), and 1×10⁶ cells were dispensed into 1.5 mL tubes. The cells were washed three times with 1 mL of PBS-BSA-Azide. To each tube, 1 mL of 4% paraformaldehyde cooled to 4° C. was added and mixed by gentle pipetting on ice. The tubes were returned to room temperature and left to stand for 15 minutes (the subsequent process was carried out at room temperature). The cells were washed three times with 1 mL of PBS-BSA-Azide.
# To GIST-T1 cell pellets, 100 μL of each antibody solution prepared with PBS-BSA-Azide was added and mixed. The mixtures were prepared to contain 10 μg of the IR700-labeled mouse anti-c-KIT (12A8) antibody, 10 μg of the IR700-labeled humanized anti-c-KIT (12A8) IgG1 antibody, and 10 μg of the IR700-labeled humanized anti-c-KIT (12A8) Fab antibody, respectively. Each mixture was covered with aluminum foil in the dark and allowed to react at room temperature (from 20° C. to 25° C.) for 60 minutes (the subsequent process was carried out in the dark as much as possible). Washing was performed three times by adding 1 mL of PBS-BSA-Azide. After adding 500 μL of PBS-BSA-Azide and mixing, each mixture was passed through a filter (42-μm nylon mesh, AS ONE Corporation). Measurement was performed using FACS (CytoFLEX (Beckman Coulter)) with excitation at 638 nm and 712/25BP.
# [1] = molecular target: T1, FLT4-Fc (fusion product of the …); assay: EIA, antigen solid-phased in 96-well plate, HRP anti-human Kappa detection
# Source text: Since the antigen recognition site of the anti-c-KIT (12A8) antibody is the extracellular region of the human c-KIT protein, a fusion protein (c-KIT-Fc) of the c-KIT extracellular region and the Fc region of the mouse antibody was used as the antigen for EIA. A fusion product of the extracellular region of the human FLT4 protein and mouse antibody Fc (FLT4-Fc) was used as a negative control.
# Each above was solid-phased in a 96-well plate, blocked with a BSA solution, washed, sufficiently dried, and then stored in a refrigerator until use. The humanized anti-c-KIT (12A8) IgG1 antibody-producing clone culture supernatant was diluted 2-fold to 64-fold and added to an antigen solid-phase plate and a negative control plate so as to perform a primary reaction. The same was performed for the humanized anti-c-KIT (12A8) Fab antibody. The primary reaction was carried out for one hour at room temperature, and then each well was washed with phosphate-buffered saline (PBS). The HRP-labeled anti-human Kappa chain antibody was added as a secondary antibody and reacted for 30 minutes at room temperature. Thereafter, each well was washed with PBS, and the substrate OPD (Sigma-Aldrich) was added to develop a color. IN sulfuric acid was added to stop the reaction, and the absorbance at 490 nm was measured.
Binder,binding result (human c-KIT),binding result [1]
B1,binds,
B2,binds,
B3,,no binding
B4,,no binding
B5,binds,
